Assay results taken from the Human Domainome abundance scans (Beltran et al. 2025).
± gives the uncertainty stated by the source.

B1: REST corepressor 3, residues 87 to 134; numbered along this chain, Q9P2K3 (parent)
chain: DEWTVEDKVLFEQAFSFHGKSFHRIQQMLPDKTIASLVKYYYSWKKTR

Variants of: B1
Assay: abundance fitness (aPCA) (normalised: wild type 0, dead -1); higher = more abundant; growth selection in yeast, the domain comes from the species named
Details: Homo sapiens

Abundance fitness of substitutions, site by site:
T33: Q -0.658 ± 0.23, G -0.265 ± 0.1, S -0.385 ± 0.14, D -0.354 ± 0.28, A -0.55 ± 0.11, R -0.688 ± 0.16, P 0.275 ± 0.1, C -0.805 ± 0.26, N -0.508 ± 0.38, W -0.693 ± 0.19, E -0.647 ± 0.27
A35: R -0.016 ± 0.047, L -0.113 ± 0.061, K -0.124 ± 0.14, Q -0.258 ± 0.15, V -0.545 ± 0.11, C -0.401 ± 0.12, P -0.345 ± 0.17, D -0.391 ± 0.28, W -0.439 ± 0.12, E 0.308 ± 0.12, N -0.145 ± 0.15
F15: S -0.632 ± 0.25, P -0.881 ± 0.26, G -0.731 ± 0.18, R -0.675 ± 0.2, L -0.658 ± 0.25
E2: V -0.859 ± 0.3, N 0.294 ± 0.24, H -0.265 ± 0.45, Q -0.486 ± 0.47, C -0.116 ± 0.33, L -0.593 ± 0.3, A -0.797 ± 0.33, S -0.441 ± 0.3, R -0.107 ± 0.16
D7: Q -0.156 ± 0.22, A -0.811 ± 0.34
S16: P -0.579 ± 0.39, V -0.393 ± 0.14, D 0.149 ± 0.12, E 0.339 ± 0.13, L -0.257 ± 0.15, T -0.427 ± 0.2, Y -0.391 ± 0.38, I -0.554 ± 0.48, M -0.167 ± 0.26, K -0.22 ± 0.26
Y41: K -0.398 ± 0.36, G -0.836 ± 0.26, R -0.654 ± 0.44, I -0.599 ± 0.44, V -0.657 ± 0.46, F -0.644 ± 0.32
D31: G 0.029 ± 0.073, S 0.225 ± 0.091, H -0.295 ± 0.3, N -0.337 ± 0.46, P -0.621 ± 0.33, E 0.026 ± 0.17, R -0.253 ± 0.13, V -0.517 ± 0.14, K -0.136 ± 0.21, C -0.45 ± 0.22, Y -0.027 ± 0.3, L -0.314 ± 0.13
T47: V -0.752 ± 0.32, R -0.071 ± 0.22, L -0.408 ± 0.26, I -0.623 ± 0.49, W -0.542 ± 0.31
E6: Q 0.293 ± 0.48, D -0.466 ± 0.16, I -0.58 ± 0.46, T -0.323 ± 0.2, L -0.614 ± 0.2, R -0.273 ± 0.11, A -0.388 ± 0.15, F -0.542 ± 0.43
A14: L -0.392 ± 0.19, K -0.393 ± 0.41, C -0.71 ± 0.29, G -0.73 ± 0.18, E -0.811 ± 0.46, Y -0.578 ± 0.38
T4: N -0.257 ± 0.3, L -0.727 ± 0.15, V -0.756 ± 0.45, S -0.198 ± 0.14
V5: Y 0.218 ± 0.12, L -0.458 ± 0.18, I -0.316 ± 0.18, G -0.658 ± 0.14, K 0.208 ± 0.13, F -0.222 ± 0.32, D -0.104 ± 0.17, A -0.137 ± 0.11
H18: I 0.283 ± 0.34, Q -0.895 ± 0.45, T -0.39 ± 0.32, V -0.974 ± 0.44, N -0.785 ± 0.31, Y -0.05 ± 0.19, S -0.706 ± 0.35
Y40: G -1.09 ± 0.43, K -0.346 ± 0.49, C -0.674 ± 0.49, R -0.964 ± 0.28, P -0.324 ± 0.35
S36: T -0.347 ± 0.2, M -0.288 ± 0.16, L -1.04 ± 0.39, Q 0.116 ± 0.12, P -0.852 ± 0.32, C -0.008 ± 0.25
Q26: R -0.232 ± 0.11, L -0.648 ± 0.17, W -0.82 ± 0.45, F -0.595 ± 0.46, V -0.692 ± 0.26, K 0.249 ± 0.12, C -0.172 ± 0.14, S -0.79 ± 0.24, Y -0.428 ± 0.33
V9: G -0.17 ± 0.13, T -0.024 ± 0.23, W -0.18 ± 0.24, P -0.828 ± 0.24, Y -0.581 ± 0.3, E -0.302 ± 0.14, K -0.201 ± 0.18, L -0.28 ± 0.19
F11: P -0.834 ± 0.39, V -0.812 ± 0.2, L -1.14 ± 0.36, C -0.265 ± 0.26, G -0.768 ± 0.23, D -0.873 ± 0.44
L29: W -0.932 ± 0.35, F -0.302 ± 0.24
K46: V -0.399 ± 0.12, F -0.54 ± 0.38, G -0.202 ± 0.069, S -0.467 ± 0.12, H 0.242 ± 0.13
Y42: R 0.234 ± 0.062, N 0.216 ± 0.15, P -0.821 ± 0.11, V 0.02 ± 0.075, H -0.236 ± 0.17, T 0.103 ± 0.072, A -0.234 ± 0.073, L 0.015 ± 0.042, E 0.203 ± 0.084, C -0.132 ± 0.16, D 0.252 ± 0.11
S21: C 0.164 ± 0.15, E 0.261 ± 0.13, D 1.11 ± 0.23, L -0.63 ± 0.23, H -0.185 ± 0.27, M -0.344 ± 0.21, V -0.323 ± 0.21
F17: G -0.793 ± 0.25, M -0.553 ± 0.28, P -0.537 ± 0.46, Y -0.592 ± 0.37, H -0.207 ± 0.47, E 0.376 ± 0.13, D 0.259 ± 0.29, K 0.207 ± 0.14, S 0.262 ± 0.12
Q13: E -0.288 ± 0.2, F -0.614 ± 0.22, I -0.56 ± 0.23, R -0.46 ± 0.16, A -0.389 ± 0.18, L -0.679 ± 0.18, S -0.584 ± 0.21, M -0.101 ± 0.29
M28: L -0.558 ± 0.15, P -0.733 ± 0.31, A -0.382 ± 0.2, G -0.806 ± 0.25, Y -0.635 ± 0.47, T -0.461 ± 0.39, F -0.502 ± 0.46, Q -0.429 ± 0.48, K -0.686 ± 0.19
H23: C -0.649 ± 0.48, A -0.164 ± 0.14, R -0.407 ± 0.13, N -0.124 ± 0.33, G -0.642 ± 0.17, W -0.56 ± 0.21, K 0.381 ± 0.2
G19: S -0.487 ± 0.3, D -0.487 ± 0.45
D1: G 0.138 ± 0.13, E -0.195 ± 0.25
I34: S -0.677 ± 0.057, T -0.644 ± 0.16, F -0.036 ± 0.31, N -0.267 ± 0.34, D -0.437 ± 0.4, R -0.374 ± 0.043, G -0.767 ± 0.11, Q -0.768 ± 0.1, H -0.73 ± 0.37, P -1.08 ± 0.36, Y -0.508 ± 0.38
K39: G -0.11 ± 0.064, D -0.575 ± 0.45, R -0.221 ± 0.097, V -0.741 ± 0.27, M -0.748 ± 0.2, H 0.075 ± 0.45
I25: S -0.945 ± 0.34, M -0.708 ± 0.45, R -0.975 ± 0.29, K -0.54 ± 0.38, T -0.713 ± 0.33, L -0.358 ± 0.15, P -0.568 ± 0.25, E -0.693 ± 0.35, A -0.567 ± 0.2
S43: R 0.021 ± 0.052, T -0.312 ± 0.14, N -0.172 ± 0.31, L -0.49 ± 0.16, F -0.577 ± 0.39, E -0.084 ± 0.12, C -0.027 ± 0.16, W -0.327 ± 0.11, G -0.154 ± 0.055
V38: Y -0.036 ± 0.13, K 0.393 ± 0.08, N -0.169 ± 0.13, T -0.266 ± 0.09, L -0.123 ± 0.065, C -0.647 ± 0.17, E -0.12 ± 0.16, M -0.115 ± 0.095, W -0.575 ± 0.15
E12: A -0.582 ± 0.29, G -0.708 ± 0.31, I -0.24 ± 0.29, R -1.01 ± 0.48, K -0.643 ± 0.34, Q -0.528 ± 0.46, S -0.822 ± 0.33, L -0.476 ± 0.39
K8: M -0.035 ± 0.13, P -0.763 ± 0.32, T -0.542 ± 0.32, V -0.625 ± 0.21, R -0.434 ± 0.13, S -0.822 ± 0.36, Q -0.457 ± 0.38, I -0.388 ± 0.5, L -0.779 ± 0.38, G -0.673 ± 0.12
L10: S -0.763 ± 0.14, I -0.117 ± 0.39, A -0.317 ± 0.14, V -0.051 ± 0.087
L37: E -0.628 ± 0.36, I -0.35 ± 0.43, V -0.618 ± 0.23, S -0.773 ± 0.25, D -0.465 ± 0.47, A -0.673 ± 0.31, G -0.835 ± 0.19
Q27: A 0.069 ± 0.14, M 0.449 ± 0.13, L -0.326 ± 0.14, I -0.924 ± 0.21, V 0.395 ± 0.082
K45: L -0.597 ± 0.25, C -0.616 ± 0.32, I -0.424 ± 0.34, R -0.087 ± 0.095, E -0.546 ± 0.29, M 0.081 ± 0.2, W -0.61 ± 0.22, N 0.014 ± 0.4, Q -0.102 ± 0.25, G -0.69 ± 0.43, S -0.143 ± 0.12, F -0.493 ± 0.34, A -0.336 ± 0.17
W3: S -0.651 ± 0.38, M -0.629 ± 0.39, C -0.776 ± 0.32, L -0.858 ± 0.4, F -0.264 ± 0.12, V -0.677 ± 0.23
F22: L -0.693 ± 0.21, V -0.809 ± 0.25, R -1.07 ± 0.27, Y -0.424 ± 0.43, G -0.739 ± 0.16
P30: E -0.563 ± 0.25, H -0.498 ± 0.46, G -0.957 ± 0.33, W 0.322 ± 0.29, V -0.726 ± 0.22, Q -0.716 ± 0.36
K32: D -0.903 ± 0.12, F -0.814 ± 0.11, R -0.473 ± 0.062, G -0.89 ± 0.075, E -0.836 ± 0.15, C -0.816 ± 0.085, V -0.93 ± 0.07, T -0.819 ± 0.093, W -0.945 ± 0.13, P -0.742 ± 0.095, Y -0.885 ± 0.12, A -0.854 ± 0.097, L -0.673 ± 0.071, Q -0.888 ± 0.18
K20: L -0.665 ± 0.24, V -0.737 ± 0.36, R -0.544 ± 0.19, S -0.393 ± 0.17, G -0.278 ± 0.14, T -0.399 ± 0.37
W44: D 0.738 ± 0.36, K -0.393 ± 0.3, A -0.78 ± 0.21
R24: V -0.508 ± 0.18
R48: E 0.016 ± 0.21, L 0.326 ± 0.29
